In general, IC50 refers to the midpoint of a concentration-inhibition curve. The low end stands for inhibition by little substance, the high end for a need for much substance.

The record followed here is patent US20120034604A1.

This assay has as its target polyclonal anti-QRFSR antibody 3RBF-SAB. The assay can be described thus: competitive ELISA: free Opiorphin against coated Y-(PE)12-QRFSR for antibody 3RBF-SAB. (In general: ELISA stands for enzyme-linked immunosorbent assay.)

B1: Opiorphin QRFSR-peptide (peptide)
peptide: QRFSR
B1 displayed an IC50 of 0.03 µg/mL.
